Molecular target: maxadilan (recombinant represented by SEQ ID NO: 2, peptide fragment GSIL- bound to the N-terminal cysteine … (Lutzomyia longipalpis (sand fly), UniProt P30659 24-86))
Assay: ^125I-Max saturation binding and Scatchard plot, rabbit spleen crude membrane fraction, filtration

B1: maxadilan receptor of the rabbit (maxadilan-specific receptor in crude membrane fractions from rabbit brain and rabbit spleen) (receptor)
chain: MAGVLQVSLAALLLLPAATAMHSDCIFKKEQALCLEKIQRANDLLGLNDSSPGCPGMWDNITCWKPAHVGEMVLVSCPELFRIFNPDQGEFDFAESTSLDLADMGVVSRNCTEDGWSEPFPHYFDACGFDEYESEPGDQDYYYLSVKALYTVGYSTSLVTLTTAMVILCRFRKLHCTRNFIHMNLFVSFMLRAISVFIKDWILYAEQDSNHCFVSTVECKAVMVFFHYCVVSNYFWLFIEGLYLFTLLVETFFPERRYFYWYTMIGWGTPTVCVAVWATLRLYFDDTGCWDMNDSTALWWVIKGPVVASIMVNFVLFIGIIIILVQKLQSPDTGGNESSIYLRLARSTLLLIPLFGIHYTVFAFSPENVSKRERLVFELGLGSFQGFVVAVLYCFLNGEVQAEIKRKWRSWKVNRYFAVDFKHRHPSLASSGVNGGTQLSILSKSSSQLRMSGLPADNLAT
Kd: 55 pM

Source: patent US6462016 (SHISEIDO, dated 2002)
